The target in experiment [1] is T1, Cynomolgus MARCO, full length, on cells (cynomolgus, UniProt A0A2K5X0Z2 1-519).
T1 construct: whole, on cells; also called cyno MARCO; CyMARCO
T1 sequence: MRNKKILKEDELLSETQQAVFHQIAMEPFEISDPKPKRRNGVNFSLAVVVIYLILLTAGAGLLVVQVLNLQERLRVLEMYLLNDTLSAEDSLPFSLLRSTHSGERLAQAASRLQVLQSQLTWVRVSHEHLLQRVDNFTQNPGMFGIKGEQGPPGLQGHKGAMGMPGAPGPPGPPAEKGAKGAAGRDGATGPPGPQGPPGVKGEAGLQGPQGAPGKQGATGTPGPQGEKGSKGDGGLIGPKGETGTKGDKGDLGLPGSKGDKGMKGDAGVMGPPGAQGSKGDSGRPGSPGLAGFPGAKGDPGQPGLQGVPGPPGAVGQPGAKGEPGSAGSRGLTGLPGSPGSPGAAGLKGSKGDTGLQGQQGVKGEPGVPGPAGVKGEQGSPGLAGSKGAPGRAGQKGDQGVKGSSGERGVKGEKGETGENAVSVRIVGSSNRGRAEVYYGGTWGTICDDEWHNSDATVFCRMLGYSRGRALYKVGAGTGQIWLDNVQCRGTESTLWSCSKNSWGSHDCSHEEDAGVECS
Nature of the experiment: flow cytometry, cells overexpressing cyno MARCO.

Experiment [2] concerns the target T2, N-terminally polyhistidine tagged human MARCO ECD (147-520), recombinant (human, UniProt Q9UEW3 147-520).
T2 construct: also called PI-RG-3000; recombinant human MARCO; not shown: N-terminal polyhistidine tag
T2 sequence: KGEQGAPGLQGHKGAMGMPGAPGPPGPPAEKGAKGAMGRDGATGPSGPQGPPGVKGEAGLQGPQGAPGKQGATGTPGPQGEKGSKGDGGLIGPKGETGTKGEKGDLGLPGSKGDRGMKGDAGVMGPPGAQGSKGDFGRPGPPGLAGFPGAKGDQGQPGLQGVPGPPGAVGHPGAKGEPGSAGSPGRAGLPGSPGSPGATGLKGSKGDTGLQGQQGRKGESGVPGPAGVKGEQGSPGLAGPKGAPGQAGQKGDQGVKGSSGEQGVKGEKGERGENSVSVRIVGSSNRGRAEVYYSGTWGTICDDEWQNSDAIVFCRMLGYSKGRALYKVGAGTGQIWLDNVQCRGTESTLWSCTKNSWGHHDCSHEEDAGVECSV
Nature of the experiment: KD (nM) Human; method not given.

Experiment [3] has as its target T3, recombinant cynomolgus MARCO protein (cynomolgus, UniProt A0A2K5X0Z2 65-519).
T3 construct: Construct not described; also called cyno MARCO; cynoMARCO
T3 sequence: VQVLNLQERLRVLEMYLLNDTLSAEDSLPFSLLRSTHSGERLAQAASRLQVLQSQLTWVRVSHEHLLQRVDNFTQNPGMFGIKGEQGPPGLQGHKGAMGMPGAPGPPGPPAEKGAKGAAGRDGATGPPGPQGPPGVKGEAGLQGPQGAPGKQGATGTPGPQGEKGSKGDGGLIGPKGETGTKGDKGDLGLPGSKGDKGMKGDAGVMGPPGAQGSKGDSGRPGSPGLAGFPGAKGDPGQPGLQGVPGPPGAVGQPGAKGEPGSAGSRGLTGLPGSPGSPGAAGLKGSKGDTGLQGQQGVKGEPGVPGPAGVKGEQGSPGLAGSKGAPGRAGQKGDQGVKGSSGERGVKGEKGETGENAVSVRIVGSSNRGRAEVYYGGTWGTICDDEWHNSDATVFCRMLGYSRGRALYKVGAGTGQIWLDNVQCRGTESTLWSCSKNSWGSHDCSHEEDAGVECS
The experiment can be described thus: KD (nM) Cyno; method not given.

Experiment [4] addresses T3, recombinant cynomolgus MARCO protein. Nature of the experiment: SPR, multi cycle kinetics, cyno MARCO.
For experiment [5], the target named is T2, N-terminally polyhistidine tagged human …. The experiment can be described thus: ELISA on hMARCO ECD with 2 mM Ca2+, A450-A620. For orientation: An ELISA detects its analyte on a solid surface through an enzyme-linked reagent.
For experiment [6] the target is unchanged. Nature of the experiment: Biacore, recombinant human MARCO; control sample. Background: SPR reads the build-up and loss of mass on a sensor chip optically.
Experiment [7] deals with T4, Human Macrophage Receptor with Collagenous Structure (MARCO), full length, on cells (human, UniProt Q9UEW3 1-520).
T4 construct: the cell type is named under assay; also called huMARCO; HuMARCO
T4 sequence: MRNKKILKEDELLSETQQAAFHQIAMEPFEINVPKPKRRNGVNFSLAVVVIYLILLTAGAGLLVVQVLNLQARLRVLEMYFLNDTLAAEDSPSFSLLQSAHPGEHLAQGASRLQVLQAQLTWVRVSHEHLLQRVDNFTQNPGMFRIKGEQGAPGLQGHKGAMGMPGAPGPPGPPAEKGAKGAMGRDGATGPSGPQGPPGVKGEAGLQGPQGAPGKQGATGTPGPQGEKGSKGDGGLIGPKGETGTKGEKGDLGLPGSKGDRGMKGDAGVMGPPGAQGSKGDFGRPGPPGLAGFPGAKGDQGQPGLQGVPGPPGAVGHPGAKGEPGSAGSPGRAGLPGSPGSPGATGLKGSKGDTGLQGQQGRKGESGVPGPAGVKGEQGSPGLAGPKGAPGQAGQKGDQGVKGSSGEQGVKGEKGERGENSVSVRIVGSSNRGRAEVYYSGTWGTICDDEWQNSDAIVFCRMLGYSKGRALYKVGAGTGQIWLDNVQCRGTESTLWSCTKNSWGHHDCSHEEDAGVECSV
The experiment can be described thus: flow cytometry, cells overexpressing human MARCO; hu (first of hu/cyn). Background: A flow cytometer gives signals particle by particle.

Experiment [8] has as its target T1, Cynomolgus MARCO, full length, on cells. Nature of the experiment: flow cytometry, cells overexpressing cyno MARCO; cyn (second of hu/cyn).
Experiment [9] concerns the target T2, N-terminally polyhistidine tagged human …. Nature of the experiment: Biacore; sample stressed 40 C 2 week. The procedure:
Binding of the stressed samples to recombinant human MARCO was assessed by Biacore.

For experiment [10] the target is unchanged. Nature of the experiment: Biacore, recombinant human MARCO; control sample. This is another data set of the same source.
For experiment [11] the target is unchanged. Nature of the experiment: ELISA readout A450-A620; the panel names no target, the legend says MARCO expressing cells; stable transfection pools.

The record followed here is patent US20220153832A1 (PIONYR IMMUNOTHERAPEUTICS, published 2022).

Several values for one entry are separate records, joined by “and”; a condition that tells them apart may be missing. Equal entries are not always repeated.

B1: PI-3010-AB (antibody, human IgG1, kappa)
heavy: not shown
light: DIQMTQSPASLSTSLGETVSIECLASEGISNDLAWYQQKSGKSPQLLIYAASRLQDGVPSRFSGSGSGTRYSLKISGMQPEDEADYFCQQSYKYPLTFGSGTKLEIKRTVAAPSVFIFPPSDEQLKSGTASVVCLLNNFYPREAKVQWKVDNALQSGNSQESVTEQDSKDSTYSLSSTLTLSKADYEKHKVYACEVTHQGLSSPVTKSFNRGEC
As for B1, it took 0.34 nM to reach a half-maximal effect in experiment [1] (EC50). For the same molecule, the Kd in [2] was 0.43 nM and 0.64 nM; in [3], 0.26 nM.

B2: PI-HX-3031 (antibody)
heavy: QVQLKESGPGLVQPSQTLSLTCTVSGFSLTSYHVSWVRQPPGKGLEWMGAIWTGGSIAYNSLLKSRLSISRDTSKSQVFLKMNSLQTEDTATYYCARDLSDYYSSYTSFDYWGQGVMVTVSTAETTAPSVYPLAPGTALKSNSMVTLGCLVKGYFPEPVTVTWNSGALSSGVHTFPAVLQSGLYTLTSSVTVPSSTWSSQAVTCNVAHPASSTKVDKKIVPRECNPCGCTGSEVSSVFIFPPKTKDVLTITLTPKVTCVVVDISQNDPEVRFSWFIDDVEVHTAQTHAPEKQSNSTLRSVSELPIVHRDWLNGKTFKCKVNSGAFPAPIEKSISKPEGTPRGPQVYTMAPPKEEMTQSQVSITCMVKGFYPPDIYTEWKMNGQPQENYKNTPPTMDTDGSYFLYSKLNVKKETWQQGNTFTCSVLHEGLHNHHTEKSLSHSP
light: DIQMTQSPASLSTSLGETVSIECLASEGISNDLAWYQQKSGKSPQLLIYAASRLQDGVPSRFSGSGSGTRYSLKISGMQPEDEADYFCQQSYKYPLTFGSGTKLEIKRADAAPTVSIFPPSTEQLATGGASVVCLMNNFYPRDISVKWKIDGTERRDGVLDSVTDQDSKDSTYSMSSTLSLTKADYESHNLYTCEVVHKTSSSPVVKSFNRNEC
notes: Parental rat hybridoma, rat IgG2a
Turning to B2, the Kd in experiment [4] was 0.109 nM.

B3: PI-3015-AB (antibody, human IgG1, kappa)
heavy: not shown
light: DIQMTQSPSSLSASVGDRVTITCRASEGISNDLAWYQQKPGKAPKLLIYAASRLQSGVPSRFSGSGSGTDYTLTISSMQPEDFATYYCQQSYKYPLTFGQGTKLEIKRTVAAPSVFIFPPSDEQLKSGTASVVCLLNNFYPREAKVQWKVDNALQSGNSQESVTEQDSKDSTYSLSSTLTLSKADYEKHKVYACEVTHQGLSSPVTKSFNRGEC
As for B3, the “EC50 (read off the curve)” value in experiment [5] is ~1 nM; in experiment [11] it was ~0.2 nM. For the same molecule, the Kd in [6] is 0.97 nM; in [9], 1.2 nM; in [10] it was 1.2 nM. Moreover, the EC50 in experiment [7] stood at 0.798 nM; in [8] it was 1.16 nM.

For orientation: EC50 means the concentration giving half of the maximal effect. A high value points to lower potency in that assay. Usually Kd stands for the equilibrium constant for the complex coming apart. By EC50 (read off the curve) is commonly meant the concentration at which the effect is half-maximal.
